# Measurements taken from PMC12339742.
# B1: PduP encapsulation peptide with its native linker fused to the N-terminus of mNeonGreen [Salmonella enterica] / itself (parent)
# chain: MNTSELETLIRTILSEQLTTPAQTPVQPQGKGIFQS
# Legend:
# [1] = variants of: B1; assay: turbidity measurement (self-assembly / condensation), NaCl titration; details: with itself; value read at the lowest NaCl point (est. ~12-15 mM NaCl); parent: 0.45; read off a plot
# [2] = variants of: B1; assay: turbidity measurement (self-assembly / condensation), protein concentration titration; details: with itself; value read at the third-highest protein concentration point (est. ~45 µM); parent: 0.45; read off a plot
Variant,response [1],response [2]
MNTSELETLIATILSEQLTTPAQTPVQPQGKGIFQS [chain 1 R11A],0.26,0.21
MNTSELETLIKTILSEQLTTPAQTPVQPQGKGIFQS [chain 1 R11K],0.46,0.39
MNTSELRTLIETILSEQLTTPAQTPVQPQGKGIFQS [chain 1 E7R R11E],0.51,0.5
MNTSELDTLIRTILSEQLTTPAQTPVQPQGKGIFQS [chain 1 E7D],0.37,0.21
MNTSELETLSRTILSEQLTTPAQTPVQPQGKGIFQS [chain 1 I10S],0.17,–
